Article PMC5639704
pKd: −log10 of the molar value.

Target: Human TRF2^TRFH (residues 42-245) (human)
Assay: ITC

Row | pKd | Substance
1 | 4.77 | WT hNBS1 peptide (423–438) (from UniProt O60934 423-438)
2 | 4.70 | WT mNBS1 peptide
3 | 4.80 | hNBS1^S432A peptide (423–438) (from UniProt O60934 423-438)
4 | 4.66 | mNBS1^S433A peptide
